Changes are numbered by the printed parent chain.
Experiments:
[1] = target: T1, HuCD86-HuIgG1 (fusion protein of the extracellular part of human CD86 and human Fc gamma 1, R&D Systems Cat … (human, UniProt P42081 24-247)); assay: ELISA, periplasmic extract on coated antigen, anti-myc detection
T1 construct: extracellular domain; bought; also called CD86-IgG1; CD86-Ig; not shown: human Fc gamma 1
T1 sequence (looked up): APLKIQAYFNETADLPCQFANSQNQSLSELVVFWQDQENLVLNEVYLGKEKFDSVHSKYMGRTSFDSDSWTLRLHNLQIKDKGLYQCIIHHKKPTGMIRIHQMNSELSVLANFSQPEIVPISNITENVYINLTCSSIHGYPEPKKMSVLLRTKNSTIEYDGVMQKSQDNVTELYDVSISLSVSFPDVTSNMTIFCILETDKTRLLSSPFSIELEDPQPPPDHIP
Text: (§1) To this end, 3 independent ELISA assays were set up. In these ELISAs, either HuCD80 or HuCD86 fusion proteins or human IgG1 were coated on ELISA plates which were washed and then blocked using Marvel skimmed milk powder (Premier Brands UK Ltd., Wirral, Merseyside, UK). […] Four aliquots of periplasmic extract of individual clones prepared as described in Example 4 were allowed to bind in all four types of ELISA plates. Binding of Nanobody to immobilized antigen was detected using mouse anti-c-myc tag monoclonal antibody as a secundary, followed by a goat-anti-mouse (human and bovine serum protein pre-absorbed) HRP conjugate for detection (for detailed protocol, see the prior art and prior applications filed by applicant).

[2] = target: T2, HuCD80-HuIgG1 (fusion protein of the extracellular part of human CD80 and human Fc gamma 1, R&D Systems Cat … (human, UniProt P33681 35-242)); assay: as above
T2 construct: extracellular domain; bought, produced in NS0 cells; also called CD80-IgG1; CD80-Ig; not shown: human Fc gamma 1
T2 sequence (looked up): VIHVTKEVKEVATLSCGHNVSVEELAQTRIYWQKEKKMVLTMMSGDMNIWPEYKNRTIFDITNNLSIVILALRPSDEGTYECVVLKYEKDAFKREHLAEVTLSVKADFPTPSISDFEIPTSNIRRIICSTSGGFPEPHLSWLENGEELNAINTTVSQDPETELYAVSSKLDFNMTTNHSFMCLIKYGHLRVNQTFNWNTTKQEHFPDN
Text: as §1

[3] = target: T3, Human IgG1, purified from a human plasma (Sigma-Aldrich Cat #I-5154) (human); assay: as above
T3 construct: also called HuIgG1
Text: as §1

[4] = target: T4, rhPDL2-Fc (fusion protein of the extracellular part of human PD-L2 and mouse Fc gamma 1, R&D Systems Cat … (human; mouse, UniProt Q9BQ51 20-220; P01868 98-324 = IgG part, limits assumed); assay: competition ELISA, coated PD-L2; blocked ligand PD-1-biotin
T4 construct: extracellular domain;domain: Fc; bought; also called PD-L2 ectodomain
Experimental: In short, 2 μg/ml PD-L2 ectodomain (R&D Systems, Minneapolis, US, Cat #1224-PL) was immobilized on maxisorp microtiter plates (Nunc, Wiesbaden, Germany) and free binding sites were blocked using 4% Marvel in PBS. Next, 0.5 μg/ml of PD-1 was preincubated with a dilution series of purified Nanobody.

[5] = target: T5, rhB7-H2-Fc (fusion protein of the extracellular part of human B7-H2 (ICOSL) and mouse Fc gamma 1, R&D Systems … (human; mouse, UniProt O75144 19-256; P01868 98-324 = IgG part, limits assumed); assay: competition ELISA, coated B7-H2; blocked ligand ICOS-biotin
T5 construct: extracellular domain;domain: Fc; bought; also called B7-H2 ectodomain

[6] = target: T6, rhPD1-Fc (fusion protein of the extracellular part of human PD-1 and mouse Fc gamma 1, R&D Systems Cat … (human; mouse, UniProt Q15116 25-170; P01868 98-324 = IgG part, limits assumed); assay: competition ELISA, coated PD-1; blocked ligand PD-L2-biotin
T6 construct: extracellular domain;domain: Fc; bought; also called PD-1 ectodomain
Experimental: (§2) In short, 2 μg/ml PD-1 ectodomain (R&D Systems Cat #1086-PD, Minneapolis, US) was immobilized on maxisorp microtiter plates (Nunc, Wiesbaden, Germany) and free binding sites were blocked using 4% Marvel in PBS.

[7] = target: T6, rhPD1-Fc (fusion protein of the …); assay: competition ELISA, coated PD-1; blocked ligand B7-H1-biotin
Experimental: as §2

[8] = target: T7, HuCD28-HuIgG1 (fusion protein of the extracellular part of human CD28 and human Fc gamma 1, R&D Systems Cat … (human, UniProt P10747 19-152; P01857 100-330 = IgG part); assay: competition ELISA, CD28-hFc in solution; blocked ligand coated B7-1-muFc
T7 construct: extracellular domain;domain: Fc; bought; also called CD28-Ig; hCD28-Fc

[9] = target: T8, human CD28 on Jurkat cells (human, UniProt P10747 19-220); assay: FACS competition, Jurkat cells; blocked ligand CD80-Fc
T8 construct: whole, on cells; also called native form of the CD28 antigen; cell expressed CD28
Text: The potency of cell-expressed CD28 binding Nanobodies to inhibit the interaction of CD28 with either CD80 or CD86 was also ranked using FACS based screening method. […] Dead cells were stained by including TOPRO3 vital dye in the final resuspension buffer. All samples were read on a BD FACSarray instrument. Dead cells were excluded from the analysis by gating out TOPRO3 vital dye positive scoring cells.

[10] = target: T1, HuCD86-HuIgG1 (fusion protein of the …); assay: SPR, Biacore 3000, antigen amine-coupled
Experimental: (§3) Affinity constants (Kd) of individual purified Nanobody clones were determined by surface plasmon resonance on a Biacore 3000 instrument. […] Remaining reactive groups were inactivated using ethanolamine. Nanobody binding was assessed at 1 and 0.1 microM. Each sample was injected for 4 min at a flow rate of 45 μl/min to allow for binding to chip-bound antigen. Next, binding buffer without Nanobody was sent over the chip at the same flow rate to allow for dissociation of bound Nanobody. After 2 min, remaining bound analyte was removed by injecting regeneration solution (50 mM NaOH or Glycine/HCl pH 1.5). Binding curves obtained at different concentrations of Nanobody were used to calculate Kd values.

[11] = target: T2, HuCD80-HuIgG1 (fusion protein of the …); assay: SPR, Biacore 3000, antigen amine-coupled
Experimental: as §3

B1: CD8086PMP2F5 (VHH)
VHH: EVQLVKSGGGLVQAGGSLRLSCAASGSIFSIYDMGWYRQAPGKQRELVAAITSGGSTNYADSVKGRFTISRDNAKNTVYLQMNSLKPEDTAVYYCNAIAYEEGVYRWDFWGQGTQVTVSS
notes: not shown: C-terminal c-myc tag and His6 tag
- OD [1]: 0.774 OD
- OD [2]: 1.65 OD
- OD [3]: 0.056 OD

B2: 103F6 (VHH)
VHH: EVQLVESGGGLVQPGGSLRLSCAASGFTFSTYTMIWLRRAPGKGFEWVSTIDKDGNTNYVDSVKGRFAVSRDNTKNTLYLQMNSLKPEDTAMYYCTKHGSSARGQGTRVTVSS
notes: Nanobody against PD-L2
- IC50 (read off the curve) [4]: ~7 nM

B3: 95H8 (VHH)
VHH: EVQLVESGGGLVQTGGSLRLSCAASSSTSTSSIDVMGWYRQSPGKQRELVASISSFGSTYYADSVKGRFIISRDNAKNTVNLQMNNLKLEDTAVHFCNLRRLSPPPLLDYWGQGTQVTVSS
notes: Nanobody against B7-H2 (ICOSL)
- IC50 (read off the curve) [5]: ~10 nM

B4: 102C3 (VHH)
VHH: EVQLVESGGGLVQAGKSLRLSCAASGSIFSIHAMGWFRQAPGKEREFVAAITWSGGITYYEDSVKGRFTISRDNAKNTVYLQMNSLKPEDTAIYYCAADRAESSWYDYWGQGTQVTVSS
notes: Nanobody against PD-1
- IC50 (read off the curve) [6]: ~10 nM
- IC50 (read off the curve) [7]: ~10 nM

B5: 102C12 (VHH)
VHH: B4 VHH with K16G, F29A, A50V, E61A, A98G, R100K, A101H, E102Q
notes: Nanobody against PD-1
- IC50 (read off the curve) [6]: ~70 nM
- IC50 (read off the curve) [7]: ~80 nM

B6: 102E2 (VHH)
VHH: B4 VHH with K16G, F29S, E61A, V64L, V79G, E102Q
notes: Nanobody against PD-1
- IC50 (read off the curve) [6]: ~70 nM
- IC50 (read off the curve) [7]: ~70 nM

B7: 102E8 (VHH)
VHH: B4 VHH with K16G, R19G, H32N, G35A, A50L, T52S, I57S, A101V, E102D, S104N
notes: Nanobody against PD-1
- IC50 (read off the curve) [6]: ~200 nM
- IC50 (read off the curve) [7]: ~200 nM

B8: 95F8 (VHH)
VHH: EVQLVESGGGLVQAGGSLRLSCAASGIAFSIDIMDWYRQAPGKERELVATISGGGSTNYADSVKGRFIVSRDNAKNILYLQMNSLKPDDTAVYYCNARRLIYGRTVYWGQGTQVTVSS
notes: as for B3
- IC50 (read off the curve) [5]: ~8 nM

B9: 70F9 (VHH)
VHH: EVQLVESGGGLVQAGGSLRLSCAASGRTFSSYVMGWFRQAPGKEREFVAAHSWYADYADSVKGRFSISRDNDKNTVYLQMNSLKPEDTAVYYCAASRSQGRRYANSYESWGQGTQVTVSS
notes: Nanobody against CD28
- IC50 (read off the curve) [8]: ~100 nM

B10: 65B2 (VHH)
VHH: EVQLVESGGGLVQAGGSLRLSCATSGRTFSSDVMGWFRQAPGKEREFVAAINRSGHSTSYTGSVKGRFAISRDNTKNTVYLQMNSLKPEDTAVYYCALRLWSDYLAQKSGEYNYWGQGTQVTVSS
notes: Nanobody against CD28
- IC50 (read off the curve) [8]: ~200 nM
- IC50 (read off the curve) [9]: ~200 ng/well

B11: 103E2 (VHH)
VHH: EVQLVESGGGLVQAGGSLRLSCAASGSTFSNYVSNYAMGWGRQAPGTQRELVASISNGDTTNYADSVKGRFTISRDNAKNTVYLQMNSLKPEDTAVYYCFEHQVAGLTWGQGTQVTVSS
notes: Nanobody against PD-L2
- IC50 (read off the curve) [4]: ~10 nM

B12: CD8086PMP1B2 (VHH)
VHH: EVQLVESGGGLVQAGGSLRLSCAASGRSFSSYVMGWFRQAPGKEREFVAAIIGRDIGTYYADSVKGRFTISRDNAKTTVYLQMNALKPEDTAVYYCAADSRSRLSGIRSAYDYWGQGTVTVSS
notes: as for B1
- binding result [10]: no binding (tested: 1 and 0.1 microM)
- Kd [11]: 0.13 nM
- koff [11]: 5.9e-05 s⁻¹
- kon [11]: 440000 M⁻¹ s⁻¹
- OD [1]: 0.038 OD
- OD [2]: 1.99 OD
- OD [3]: 0.046 OD

B13: 95A6 (VHH)
VHH: EVQLVESGGGLVQAGGSLRLSCALSGRAVSIAATAMGWYRQAPGKQRELVAARWSGGSIQYLDSVKGRFTISRDNAKNTVYLQMNSLTPEDTAVYYCNTLPWRANYSGQGTQVTVSS
notes: as for B3
- IC50 (read off the curve) [5]: ~10 nM

B14: 95B11 (VHH)
VHH: EVQLVESGGGLVQPGGSLRLSCAASRSISSFNLLGWYRQAPGKQRELVAHLLSGGSTVYPDSVKGRFTVSRDNTKNTVYLQMNSLKPEDTAVYYCNAIAPALGSSWGQGTQVTVSS
notes: as for B3
- IC50 (read off the curve) [5]: ~10 nM

B15: 70F10 (VHH)
VHH: EVQLVESGGGLVQAGGSLRLSCAASGFTFDDYAIGWFRQAPGKEREGVACVSNSDGSTYYANSVKGRFTISSDNAKNTVYLQMNSLKPEDTAVYYCAADSRCWGWGMLHMRHGDRGQGTQVTVSS
notes: Nanobody against CD28
- IC50 (read off the curve) [8]: ~200 nM
